From the supplement of paper PMC10126150
± gives the standard deviation of the averaged measurements.

System: ATP
Assay: switch fluorescence ratio, 500 uM ATP over buffer (Cy3 cluster intensity, sum of 5 cycles each) (fold (ratio)); higher = stronger signal-on switching upon ATP binding; sequences stand for … in TCGTCGGCAGCGTCAGATGTGTATAAGAGACAGTTTTTTTTTTTTTTTTTTTTTTTTT…TC
Settings: aptamer strand: ATP DNA aptamer (quencher-CACCTGGGGGAGTATTGCGGAGGAAGG + anchor), 100 nM annealed; ATP concentration: 500 uM
Method in brief: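 The fluorescence ratio divides summed target-cycle Cy3 intensity by summed buffer-cycle Cy3 intensity for each cluster and is averaged per switch-domain sequence. Cy3-labelled switching-strand clusters on a modified Illumina MiSeq flow-cell were annealed to 100 nM quencher-labelled ATP aptamer, then imaged in selection buffer and again after 15 min with 500 uM ATP at 22 °C. Five such cycles were run, with NaOH stripping and re-annealing between them, and clusters outside 100-1000 RFU were excluded.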
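Note: ATP exposure 15 min at 22 °C before imaging.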

Sequence | switch fluorescence ratio
AGGAAGAGGC | 1.08 ± 0.18
TTTTGGTTTG | 1 ± 0.034
GAAGAGAGGG | 1.016 ± 0.0092
TTATGGGGAT | 0.988 ± 0.019
TTTAACGCCA | 1.082 ± 0.0028
TTGAAATTTT | 1.001 ± 0.0077
TTTTAGGTGT | 1.28 ± 0.26
CACTTAGGGG | 1.01 ± 0.022
CCTGGGGGC | 1.1 ± 0.056
ACGAGTTAGT | 0.9933 ± 0.0045
TTTTTTGTGG | 0.978 ± 0.031
TAATTAACTT | 1.09 ± 0.12
GCGATGTGGT | 1.01 ± 0.012
CGGAAGGGGG | 1 ± 0.048
CTCGAAGCG | 1.04 ± 0.034
CCATTGTTAT | 0.988 ± 0.017
GGGGTTCCGT | 1 ± 0.025
TCAGGAGGGG | 0.997 ± 0.02
ACGGGCTGTG | 1.01 ± 0.054
CCAGCACCTC | 1.45 ± 0.039
TTGTCCTGGG | 1.02 ± 0.012
GTGATAATGT | 0.981 ± 0.027
TCTTGTTATT | 0.9985 ± 0.0054
TATTATGGGA | 0.991 ± 0.035
ATCGCTATGG | 1.125 ± 0.0017
TATGGGGAGC | 0.998 ± 0.044

Sequence | switch fluorescence ratio
AATAAGCTCG | 0.9792 ± 0.0018
GTTCGGGGCC | 1.01 ± 0.046
GGCCTGGTTT | 1.03 ± 0.057
TTTCAGCT | 0.977 ± 0.013
CATTTGGGCG | 1.03 ± 0.015
ATATCCTTCA | 1.35 ± 0.43
ACTAACTAAT | 1.06 ± 0.056
TGTAACTTGC | 1.077 ± 0.0036
GAGTCGGTGG | 1.4 ± 0.63
ATGCTGCGGG | 1.06 ± 0.068
TGTCCATGGG | 1.013 ± 0.0047
TGGCGGTTAG | 1.01 ± 0.019
AGTTGGAGGC | 0.9476 ± 0.0088
AAATAAACGG | 1.08 ± 0.14
GTTATGCGCG | 1.03 ± 0.013
CCAGATAACG | 1.04 ± 0.022
AAAGGGTAAG | 0.975 ± 0.015
AGATTTTGTG | 0.9922 ± 0.0038
GTTAGCGGTT | 0.9884 ± 0.0034
CAATGGAAAT | 0.984 ± 0.025
AGTGCATTTT | 1.06 ± 0.097
AGAGGGGGGC | 1.04 ± 0.1
TTTTTGTATA | 0.979 ± 0.027
GATTTGGTCA | 0.9976 ± 0.0034
AGCTGCTACG | 0.996 ± 0.027
ATATATGTAA | 0.994 ± 0.023

Sequence | switch fluorescence ratio
TGCGGGTGGT | 1.035 ± 0.0014
TTCTGGTTGT | 0.987 ± 0.046
TCTACGGGGG | 1.032 ± 0.0024
GCCCAGTCCT | 1.03 ± 0.02
TCCGGGGGTG | 1.09 ± 0.13
ATTGAAAAAG | 1.01 ± 0.025
TTTGTACCGT | 1.06 ± 0.1
TTTTGGTGG | 0.974 ± 0.033
TATTGTTTGA | 0.9578 ± 0.0067
GTGGTTGTGC | 0.97 ± 0.035
TTTACGGCGT | 0.994 ± 0.017
ATTCTCACGT | 1.06 ± 0.021
AATGAGGGGA | 1 ± 0.013
GTCTTTTACG | 1.005 ± 0.0013
TTTTTTCGTC | 1.02 ± 0.011
TGGGGCTTAT | 0.987 ± 0.026
TATGGGGTGG | 1.01 ± 0.015
ATAGTATAGA | 1.01 ± 0.047
ACTTGAGGGA | 0.9743 ± 0.0071
CGCCGGAGGA | 0.9697 ± 0.0067
TTCTTTTTTT | 1.01 ± 0.032
TAGCCCGTGG | 1.02 ± 0.027
AGGGATTTAA | 0.988 ± 0.022
TCTTTGGGAC | 0.994 ± 0.028
GGGGTAGGTA | 0.96 ± 0.038
TCCGCGGGTT | 1.14 ± 0.2

Sequence | switch fluorescence ratio
TTTATACTTT | 1.06 ± 0.1
TCTGTGCATA | 1.52 ± 0.1
ACGTGGAAGC | 1.04 ± 0.043
ATGTCAAGGG | 0.9944 ± 0.0085
TCGTTGCGAG | 0.9898 ± 0.0096
TATGGGTACT | 1 ± 0.027
GTAGCGGCTG | 1.037 ± 0.01
GTTGTTAAAT | 1.011 ± 0.0047
CATCGAGAGG | 1.01 ± 0.019
GTGCTAACGG | 0.9633 ± 0.0069
CTGGTTAGGG | 0.98 ± 0.018
CTTAGTAATG | 1.05 ± 0.11
CACAGGCCCA | 1.04 ± 0.056
GCTGAAAGGA | 0.999 ± 0.061
TTTGAAGACA | 0.991 ± 0.028
GTGATACGGG | 1.04 ± 0.021
AGGAATAAA | 0.976 ± 0.052
TTATAGTATG | 0.99 ± 0.043
CATTTGGAAT | 1.7 ± 0.97
AAAGTGTTTC | 0.986 ± 0.029
TGCTCCGGAG | 1.018 ± 0.006
CCTGGAGCTC | 1.35 ± 0.02
GTGTTATGCA | 1.01 ± 0.021
TCCATCTGGG | 1.01 ± 0.032
CATCGTGGTT | 0.9778 ± 0.0043
GGATGGGAGG | 1.046 ± 0.0092

Sequence | switch fluorescence ratio
AATTGTCATT | 1.01 ± 0.019
CGTTTCACTA | 0.9736 ± 0.0019
TCATGTTATG | 0.971 ± 0.065
ACGATGAGGA | 0.982 ± 0.07
GAGTGAAGGT | 0.9963 ± 0.008
AAGTGGCTGT | 0.941 ± 0.027
GGGGGGACTA | 1.03 ± 0.031
CCTTGGGGGG | 1.03 ± 0.11
TTGGGTGCTA | 1.09 ± 0.16
TTGCATGGGT | 1.01 ± 0.039
GCCTATTTTG | 0.962 ± 0.07
GCTACGATGT | 1.01 ± 0.049
AGGTAGGAAG | 0.999 ± 0.034
ATGGGGTT | 0.992 ± 0.0053
TACTCCATAT | 1.14 ± 0.019
GTCCAAATGG | 0.999 ± 0.022
AGAAGCGCGG | 0.975 ± 0.044
CCATTTGAGA | 0.998 ± 0.022
TCAGGGTTTC | 0.984 ± 0.013
TCGCGGCAAT | 3.06 ± 2.3
ATTTAAATAG | 0.993 ± 0.035
CAGGTCCGGG | 1.02 ± 0.018
AGCTATGTTT | 0.979 ± 0.04
GGGTGTTACA | 1.05 ± 0.022
TAGTTCTTAA | 0.984 ± 0.064
TAGAAGTTGT | 1 ± 0.022

Sequence | switch fluorescence ratio
AGGTGTTATT | 1.005 ± 0.0074
TCTTGGGCAT | 1.01 ± 0.04
ATGTAATCTA | 0.961 ± 0.036
CGACGTTCAC | 1.96 ± 0.051
GTTGTAGTTA | 1.01 ± 0.041
TTTAGGCCCA | 1.03 ± 0.041
AATCTTGATT | 1.2 ± 0.24
AGGGAAAGTT | 1.01 ± 0.024
TTTATTTACT | 1.011 ± 0.0036
TGGGGTCTCT | 0.985 ± 0.042
GCGACCGTGT | 0.9908 ± 0.0014
CACAGCAGTC | 2.62 ± 0.34
TTTCAGAGTC | 1.01 ± 0.064
CGGGAGTGCT | 0.994 ± 0.019
AGTTTGGGTA | 0.9959 ± 0.008
TTGTTAATTG | 1.01 ± 0.041
TTCATGAATT | 0.9956 ± 0.0056
TTTTGGGCTT | 1.12 ± 0.22
CGTCCACGGA | 0.9936 ± 0.0096
CTTGTATAGC | 0.992 ± 0.028
GGGATGGGGG | 1 ± 0.043
GGATTTGGAG | 0.993 ± 0.024
GCTTATTGTT | 0.99355 ± 0.00014
